Test [1] deals with T1, recombinant human αvβ6 extracellular domain (R&D Systems) (human, UniProt P06756 31-992; P18564 22-709).
T1 construct: extracellular domain; Bought; also called recombinant extracellular αvβ6; purified αvβ6
As to the kind of experiment: direct binding to integrin-coated plates, near-infrared fluorescence.

In test [2] the target is T2, αvβ8 integrin (purified, coated on microtiter plates) (UniProt P06756 31-992; P26012 43-684).
T2 construct: The Reagents section names no source for αvβ8; also called avs8
T2 sequence (P06756 31-992, chain 1 of 2): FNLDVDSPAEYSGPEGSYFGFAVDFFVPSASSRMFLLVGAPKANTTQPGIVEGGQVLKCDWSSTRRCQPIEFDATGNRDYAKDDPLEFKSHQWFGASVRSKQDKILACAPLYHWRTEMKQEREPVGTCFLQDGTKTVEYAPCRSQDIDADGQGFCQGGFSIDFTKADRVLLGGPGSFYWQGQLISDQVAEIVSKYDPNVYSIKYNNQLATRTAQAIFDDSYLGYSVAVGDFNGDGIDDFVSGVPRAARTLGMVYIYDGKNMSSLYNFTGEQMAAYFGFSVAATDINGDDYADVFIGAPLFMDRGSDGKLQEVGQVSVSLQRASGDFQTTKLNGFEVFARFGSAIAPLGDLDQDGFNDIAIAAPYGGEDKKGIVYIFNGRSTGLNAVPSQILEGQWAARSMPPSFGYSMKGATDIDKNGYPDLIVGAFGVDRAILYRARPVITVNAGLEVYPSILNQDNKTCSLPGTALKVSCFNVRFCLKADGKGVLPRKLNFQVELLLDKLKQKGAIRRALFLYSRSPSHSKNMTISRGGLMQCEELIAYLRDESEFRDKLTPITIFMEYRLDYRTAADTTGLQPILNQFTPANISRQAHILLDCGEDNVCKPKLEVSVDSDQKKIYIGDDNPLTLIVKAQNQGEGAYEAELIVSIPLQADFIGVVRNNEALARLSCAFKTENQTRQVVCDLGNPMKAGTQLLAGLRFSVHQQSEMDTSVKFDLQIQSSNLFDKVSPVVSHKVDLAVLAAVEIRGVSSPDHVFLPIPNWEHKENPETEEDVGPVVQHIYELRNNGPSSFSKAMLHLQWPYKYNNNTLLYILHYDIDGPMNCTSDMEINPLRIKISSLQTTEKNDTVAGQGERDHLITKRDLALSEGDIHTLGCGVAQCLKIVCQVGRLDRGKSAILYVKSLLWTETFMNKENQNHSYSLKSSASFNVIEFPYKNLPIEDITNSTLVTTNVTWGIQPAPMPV
T2 sequence (P26012 43-684, chain 2 of 2): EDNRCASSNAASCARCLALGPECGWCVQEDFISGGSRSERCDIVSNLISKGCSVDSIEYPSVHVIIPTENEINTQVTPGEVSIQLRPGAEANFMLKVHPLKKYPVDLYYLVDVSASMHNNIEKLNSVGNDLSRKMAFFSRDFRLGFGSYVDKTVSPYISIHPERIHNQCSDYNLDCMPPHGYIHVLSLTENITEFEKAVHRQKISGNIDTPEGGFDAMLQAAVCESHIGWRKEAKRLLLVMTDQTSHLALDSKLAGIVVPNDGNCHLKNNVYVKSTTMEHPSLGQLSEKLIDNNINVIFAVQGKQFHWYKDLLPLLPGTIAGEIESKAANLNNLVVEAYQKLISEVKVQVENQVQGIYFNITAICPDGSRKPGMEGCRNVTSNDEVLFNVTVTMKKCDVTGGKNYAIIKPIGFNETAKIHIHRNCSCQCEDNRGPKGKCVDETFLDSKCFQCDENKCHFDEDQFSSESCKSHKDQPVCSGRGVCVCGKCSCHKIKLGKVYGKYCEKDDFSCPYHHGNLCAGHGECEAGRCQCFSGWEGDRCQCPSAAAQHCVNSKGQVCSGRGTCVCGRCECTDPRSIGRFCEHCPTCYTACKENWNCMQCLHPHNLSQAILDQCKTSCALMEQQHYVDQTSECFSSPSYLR
Described as above.

Test [3] concerns the target T1, recombinant human αvβ6 extracellular …. As to the kind of experiment: competitive αvβ6 binding assay, isoDGR-HRP probe.
The target is the same in test [4]. As to the kind of experiment: competitive binding assay on αvβ6-coated plates, isoDGR/STV-HRP probe.
Test [5] deals with T3, wild-type human integrin αvβ5 (octyl β-D-glucopyranoside preparation) (human, UniProt P06756 31-1048; P18084 24-799).
T3 construct: From Immunological Sciences
As to the kind of experiment: competitive binding assay on αvβ5-coated plates, isoDGR/STV-HRP probe.

Test [6] has as its target T1, recombinant human αvβ6 extracellular …. As to the kind of experiment: competitive binding assay on αvβ6-coated plates, isoDGR/STV-HRP probe. The source holds these as a separate data set.
Test [7] has as its target T4, wild-type human integrin α5β1 (octyl β-D-glucopyranoside preparation) (human, UniProt P08648 42-1049; P05556 21-798).
T4 construct: From Immunological Sciences; also called a5p1; asp1
The test is described as follows: competitive binding assay on α5β1-coated plates, isoDGR/STV-HRP probe.

The target of test [8] is T5, wild-type human integrin αvβ3 (octyl β-D-glucopyranoside preparation) (human, UniProt P06756 31-1048; P05106 27-788).
T5 construct: From Immunological Sciences
The test is described as follows: competitive binding assay on αvβ3-coated plates, isoDGR/STV-HRP probe.

Test [9] concerns the target T2, αvβ8 integrin (purified, coated on …). The test is described as follows: competitive binding assay on αvβ8-coated plates, isoDGR/STV-HRP probe.
Test [10] has as its target T1, recombinant human αvβ6 extracellular …. The test is described as follows: STD NMR, 0.5 mM peptide with 4 µM αvβ6.
A further test addresses T6, bovine serum albumin (bovine, UniProt P02769 25-607).
T6 construct: Negative control in the STD NMR experiments; also called BSA
As to the kind of experiment: 2D-STD-1H-15N-HSQC NMR, negative control.

For test [11], the target named is T3, wild-type human integrin αvβ5 (octyl …). As to the kind of experiment: direct binding to integrin-coated microtiter plates, one site specific binding fit.
Test [12] addresses T5, wild-type human integrin αvβ3 (octyl …). The description is as above.
Test [13] addresses T4, wild-type human integrin α5β1 (octyl …). The test is described as above.
In test [14] the target is T1, recombinant human αvβ6 extracellular …. Described as above.
Test [15] deals with T2, αvβ8 integrin (purified, coated on …). Described as above.

Read-outs that look alike come from different tables or passages of the source. *1 amine or outer side, *2 acyl side, *3 side chain or, on linkers, in order; H or OH if unused. Bridges are numbered along the chain shown (N, C = ends). Where no end group is shown, it is not given here. [ ]: non-standard residue; d: D form. The star is where a group is joined. maleimide‑NOTA = 1,4,7-triazacyclononane-1,4-bis-acetic acid-7-maleimidoethylacetamide; Biotin = O=C1N[C@H]2[C@H](CS[C@H]2CCCCC(=O)*)N1; Lys(N3) = [N-]=[N+]=NCCCC[C@H](N)C(=O)O; βAsp = O=C(O)[C@H](CC(=O)[*:2])N[*:1]; hSer(lactone) = O=C1OCC[C@@H]1N*; Pra = C#CC[C@H](N)C(=O)O

T4 sequence (P08648 42-1049, chain 1 of 2): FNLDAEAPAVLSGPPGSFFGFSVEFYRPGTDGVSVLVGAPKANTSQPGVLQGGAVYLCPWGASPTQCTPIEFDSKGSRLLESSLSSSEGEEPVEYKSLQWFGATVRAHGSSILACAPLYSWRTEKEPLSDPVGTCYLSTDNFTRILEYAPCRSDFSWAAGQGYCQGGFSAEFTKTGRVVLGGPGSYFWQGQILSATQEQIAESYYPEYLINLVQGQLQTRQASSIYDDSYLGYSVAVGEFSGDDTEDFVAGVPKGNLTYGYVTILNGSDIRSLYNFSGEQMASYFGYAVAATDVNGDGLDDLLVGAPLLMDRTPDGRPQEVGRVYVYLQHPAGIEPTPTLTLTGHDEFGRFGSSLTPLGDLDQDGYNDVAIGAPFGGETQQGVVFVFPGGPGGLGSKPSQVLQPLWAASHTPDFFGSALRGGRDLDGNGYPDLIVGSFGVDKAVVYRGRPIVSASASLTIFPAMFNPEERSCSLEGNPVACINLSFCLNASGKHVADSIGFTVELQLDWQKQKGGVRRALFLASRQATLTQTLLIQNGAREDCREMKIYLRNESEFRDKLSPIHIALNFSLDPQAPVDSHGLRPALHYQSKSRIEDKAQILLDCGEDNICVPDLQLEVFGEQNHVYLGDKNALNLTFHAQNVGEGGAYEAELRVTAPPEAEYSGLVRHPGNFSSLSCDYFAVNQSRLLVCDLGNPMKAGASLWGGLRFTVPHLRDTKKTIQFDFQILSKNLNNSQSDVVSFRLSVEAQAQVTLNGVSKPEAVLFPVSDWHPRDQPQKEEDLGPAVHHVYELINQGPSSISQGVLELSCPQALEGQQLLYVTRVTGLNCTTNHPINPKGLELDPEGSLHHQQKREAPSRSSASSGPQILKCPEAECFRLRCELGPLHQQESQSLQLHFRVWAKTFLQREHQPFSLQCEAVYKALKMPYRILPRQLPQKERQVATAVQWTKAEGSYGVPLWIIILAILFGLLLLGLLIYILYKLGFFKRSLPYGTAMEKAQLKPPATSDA
T4 sequence (P05556 21-798, chain 2 of 2): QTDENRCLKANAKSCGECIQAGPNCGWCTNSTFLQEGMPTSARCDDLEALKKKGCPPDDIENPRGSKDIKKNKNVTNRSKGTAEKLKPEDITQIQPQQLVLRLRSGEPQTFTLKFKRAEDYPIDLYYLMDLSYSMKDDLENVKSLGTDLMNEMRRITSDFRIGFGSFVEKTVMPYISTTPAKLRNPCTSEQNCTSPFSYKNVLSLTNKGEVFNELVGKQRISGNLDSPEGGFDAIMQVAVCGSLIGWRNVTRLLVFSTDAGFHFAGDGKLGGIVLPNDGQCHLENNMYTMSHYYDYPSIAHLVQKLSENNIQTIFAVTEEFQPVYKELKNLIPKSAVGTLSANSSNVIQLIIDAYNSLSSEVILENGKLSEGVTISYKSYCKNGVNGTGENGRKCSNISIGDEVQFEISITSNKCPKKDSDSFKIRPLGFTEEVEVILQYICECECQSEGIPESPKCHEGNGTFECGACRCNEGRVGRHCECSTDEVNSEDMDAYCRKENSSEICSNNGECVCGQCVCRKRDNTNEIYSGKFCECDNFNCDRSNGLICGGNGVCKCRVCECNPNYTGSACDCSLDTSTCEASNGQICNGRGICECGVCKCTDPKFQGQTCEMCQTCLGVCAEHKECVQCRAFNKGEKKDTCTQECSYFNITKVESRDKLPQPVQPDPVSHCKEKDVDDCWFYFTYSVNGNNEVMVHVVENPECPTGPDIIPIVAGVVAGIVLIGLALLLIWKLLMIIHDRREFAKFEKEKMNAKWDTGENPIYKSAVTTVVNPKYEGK
T1 sequence (P06756 31-992, chain 1 of 2): as the sequence (P06756 31-992, chain 1 of 2) above
T1 sequence (P18564 22-709, chain 2 of 2): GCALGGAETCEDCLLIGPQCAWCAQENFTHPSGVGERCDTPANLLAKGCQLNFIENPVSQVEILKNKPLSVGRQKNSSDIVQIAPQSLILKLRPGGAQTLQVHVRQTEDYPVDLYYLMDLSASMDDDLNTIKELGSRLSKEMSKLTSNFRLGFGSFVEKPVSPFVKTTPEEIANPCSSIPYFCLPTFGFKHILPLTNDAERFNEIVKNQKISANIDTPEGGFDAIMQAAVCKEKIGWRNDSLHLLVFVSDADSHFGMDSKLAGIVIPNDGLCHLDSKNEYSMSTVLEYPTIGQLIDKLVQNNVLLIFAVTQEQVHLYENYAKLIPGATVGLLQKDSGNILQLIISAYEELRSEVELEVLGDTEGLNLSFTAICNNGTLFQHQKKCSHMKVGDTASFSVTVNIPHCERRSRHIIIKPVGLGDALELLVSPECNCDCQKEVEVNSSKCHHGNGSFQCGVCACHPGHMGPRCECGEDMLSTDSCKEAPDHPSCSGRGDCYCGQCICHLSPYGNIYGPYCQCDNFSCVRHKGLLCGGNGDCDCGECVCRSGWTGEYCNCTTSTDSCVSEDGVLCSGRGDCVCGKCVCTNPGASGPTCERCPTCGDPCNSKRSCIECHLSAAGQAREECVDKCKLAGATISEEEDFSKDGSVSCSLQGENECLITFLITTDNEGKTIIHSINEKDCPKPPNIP
T6 sequence (P02769 25-607 limits assumed): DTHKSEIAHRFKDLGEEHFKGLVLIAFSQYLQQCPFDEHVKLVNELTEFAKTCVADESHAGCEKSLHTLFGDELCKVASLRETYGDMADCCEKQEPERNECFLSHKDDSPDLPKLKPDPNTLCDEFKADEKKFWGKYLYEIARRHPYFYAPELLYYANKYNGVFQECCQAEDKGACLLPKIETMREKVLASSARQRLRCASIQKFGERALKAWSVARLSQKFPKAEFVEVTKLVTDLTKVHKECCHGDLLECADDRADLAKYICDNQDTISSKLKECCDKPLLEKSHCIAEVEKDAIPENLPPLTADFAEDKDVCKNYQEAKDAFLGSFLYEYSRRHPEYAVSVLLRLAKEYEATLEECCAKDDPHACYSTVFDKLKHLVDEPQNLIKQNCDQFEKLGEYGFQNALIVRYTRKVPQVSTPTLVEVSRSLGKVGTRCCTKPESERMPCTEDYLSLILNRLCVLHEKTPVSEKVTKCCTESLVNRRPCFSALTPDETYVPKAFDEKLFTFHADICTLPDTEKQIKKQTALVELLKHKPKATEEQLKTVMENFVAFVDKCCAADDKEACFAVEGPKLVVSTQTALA

B1: 2a-IRDye (peptide 2a coupled via Cys to maleimide-IRDye 800CW) (peptide)
peptide: C(maleimide‑IRDye 800CW)FETLRGEERILSILRHQNLLKELQD
notes: RGE control conjugate
For the molecule B1, the binding result in test [1] and in test [2] was “no binding (tested: range 0.01-100 nM)” throughout.

B2: NOTA-2a (peptide 2a coupled to maleimide-NOTA) (peptide)
peptide: C(maleimide‑NOTA)FETLRGEERILSILRHQNLLKELQD
notes: Negative control conjugate
Regarding B2, in test [3], the binding result is listed as “no binding”.

B3: peptide 5a (peptide)
peptide: CFETLRGDLRILSILR[Pra]QNL[Lys(N3)]KELQD-NH2
modifications: triazole 17-21
notes: also called CgA38-63-derived peptide
The Ki is the dissociation constant of the complex between target and ligand, obtained from inhibition or displacement. With B3, in [4], the Ki turned out to be 1.5 nM.

B4: peptide 3 (peptide)
peptide: FETLRGDERILSILR-NH2
notes: Made by Fmoc-SPPS on a Rink-amide resin; also called compound 3
B4: the Ki stood at 2040 nM in test [5]; 277 nM in test [6]; 10100 nM in test [7]; 1250 nM in test [8]; 31200 nM in test [9].

B5: peptide 1 (CgA-derived peptide, residues 39-63), synthetic (peptide)
peptide: FETLRGDERILSILRHQNLLKELQD
notes: Synthetic peptide bought from Biomatik; no terminal modification is stated for it; also called compound 1
B5: the Ki in [5] came to 3600 nM; in test [6], 15.5 nM; in test [7], 9210 nM; in [8], 2190 nM; in test [9] it was 7660 nM.

B6: recombinant 13C/15N peptide 1 (peptide)
peptide: FETLRGDERILSILRHQNLLKELQD-{hSer(lactone)}
modifications: also: 13C/15N isotope labelled
notes: Used in the 2D-STD NMR experiments; also called recombinant peptide 1; 15N labelled peptide 1
As for B6, the binding result is given as “binds” in test [10] and “no binding” with bovine serum albumin.

B7: isoDGR/STV-HRP (acetyl-CisoDGRCGVRSSSRTPSDKY-bio in complex with a streptavidin-peroxidase conjugate) (peptide)
chain: Ac-C[βAsp]GRCGVRSSSRTPSDK(Biotin)Y
modifications: also: in complex with streptavidin-peroxidase conjugate
A word on the Kd: it is a measure of binding affinity in units of concentration. As to B7, the Kd in [11] amounted to 1.7 nM; in test [12], 1.3 nM; in [13] it was 1.3 nM; in test [14] it was 1.4 nM; in test [15], 1.6 nM.
